From US20240199755A1, “ANTAGONISTS AND AGONISTS OF THE TRANSFERRIN RECEPTOR-2 FOR USE IN THE TREATMENT OF DISEASES OF THE BONE” (Kymab Limited, priority 2018, published 2024)

What was measured:
[1] = test system: BMPs-2, 4, 6 and 7; assay: SPR binding of BMP ligands to Tfr2-ECD immobilized on the sensor chip
Method: For this purpose, Tfr2-ECD is immobilized on a Series S Sensor Chip C1 (GE Healthcare), by means of coupling the amino groups at 25° C. The carboxyl groups on the chip surface are activated for 7 minutes using a mixture of 196 mM 1-ethyl-3-(3-dimethylaminopropyl) carbodiimide-hydrochloride and 50 mM n-hydroxysuccinimide at a flow rate of 10 μl/min. Subsequently, 5 μg/ml Tfr2-ECD, diluted with sodium acetate buffer (pH 4.5), is injected at a flow rate of 5 μl/min up to a relative occupancy of 200 RU. Non-reacted groups are inactivated by injecting 1 M thanolamine-HCl (pH 8.5) for 7 minutes at a flow rate of 10 μl/min. In order to prepare a reference surface, the same procedure is carried out but without Tfr2-ECD being injected.
The binding assays are carried out at 37° C. at a flow rate of 30 μl/min. Each analyte is diluted by a running buffer (HBS-P, pH 7.4 together with 50 nM FeCl3). BMPs are used in a concentration of 50 nM and BMP receptors are used in a concentration of 200 nM. The binding assays are carried out by means of analyte injection for 300 s over the Tfr2-ECD surface, followed by dissociation for 1000 s. The values of the binding level are read out, relative to the baseline, 10 s before the end of the injection and are corrected with respect to the molar mass. Following the dissociation for 1000 s, the chip surface is regenerated for 60 s by means of HBS-P together with 5 M NaCl and 50 mM NaOH and is stabilized for 1000 s. The binding parameters are determined using the Biacore™ T100 evaluation software 2.03.
Tfr2-ECD, BMP-2 and BMP-4 were immobilized onto Series S Sensor Chips C1 (GE Healthcare) via its amine groups at 25° C. […]
For binding analysis, an injection of analyte for 240 s or 300 s over a Tfr2-ECD surface was followed by 1000 s dissociation. The values of the binding levels were recorded from referenced signals 10 s before the end of injection relative to baseline response. […]

[2] = test system: trauma-induced heterotopic ossification; assay: Trauma-potentiated (drop-weight) heterotopic ossification model; assay type: in vivo; details: WT mice; after three weeks; Tfr2-ECD single dose, palovarotene or ibuprofen daily
Method: For systemic Tfr2-ECD treatment, WT mice were treated every other day with Tfr2-ECD intraperitoneally for two weeks. Mice received 250 μg Tfr2-ECD (10 mg/kg BW) per injection for the first 10 days after BMP-2/matrigel injection into the muscle and 125 μg per injection (5 mg/kg BW) for the remaining time. This experiment was performed once with 8-10 mice per group. Drop-weight HO: This experiment was performed according to Liu et al. with minor modifications^65. Female 10-12-week-old WT mice were anesthetized and placed on a ridge of a plastic container over which the right leg was bent so the femur was lying horizontally. Mice received an injection of 1 μg BMP-2 mixed in 50 μl matrigel. Afterwards, a stainless-steel ball of 16 g (16 mm diameter) was dropped from a distance of 80 cm height onto the quadriceps muscle. Mice either received a single dose of 1 μg Tfr2-ECD, which was co-injected with the BMP-2/matrigel mixture, or palovarotene (Hycultec), which was administered daily by oral gavage. Palovarotene was dissolved in DMSO and diluted 1:4 with corn oil. Mice received palovarotene at a dose of 100 μg/mouse for the first five days and 50 μg/mouse for the remainder of the experiment (days 621). One group of mice received ibuprofen via the drinking water at a dose of […] which was changed every other day^66. […]

B1: Tfr2-ECD: Recombinant full-length extracellular domain (aa 103-798) of murine Tfr2, His-tagged, expressed in Sf9 insect cells (protein, listed as Mus musculus)
chain: RGSCQACGDSVLVVDEDVNPEDSGRTTLYWSDLQAMFLRFLGEGRMEDTIRLTSLRERVAGSARMATLVQDILDKLSRQKLDHVWTDTHYVGLQFPDPAHANTLHWVDADGSVQEQLPLEDPEVYCPYSATGNATGKLVYAHYGRSEDLQDLKAKGVELAGSLLLVRVGITSFAQKVAVAQDFGAQGVLIYPDPSDFSQDPHKPGLSSHQAVYGHVHLGTGDPYTPGFPSFNQTQFPPVESSGLPSIPAQPISADIADQLLRKLTGPVAPQEWKGHLSGSPYRLGPGPDLRLVVNNHRVSTPISNIFACIEGFAEPDHYVVIGAQRDAWGPGAAKSAVGTAILLELVRTFSSMVSNGFRPRRSLLFISWDGGDFGSVGATEWLEGYLSVLHLKAVVYVSLDNSVLGDGKFHAKTSPLLVSLIENILKQVDSPNHSGQTLYEQVALTHPSWDAEVIQPLPMDSSAYSFTAFAGVPAVEFSFMEDDRVYPFLHTKEDTYENLHKMLRGRLPAVVQAVAQLAGQLLIRLSHDHLLPLDFGRYGDVVLRHIGNLNEFSGDLKERGLTLQWVYSARGDYIRAAEKLRKEIYSSERNDERLMRMYNVRIMRVEFYFLSQYVSPADSPFRHIFLGQGDHTLGALVDHLRMLRADGSGAASSRLTAGLGFQESRFRRQLALLTWTLQGAANALSGDVWNIDNNF
modifications: His tag
notes: Recombinant full-length extracellular domain (aa 103-798) of murine Tfr2, His-tagged, expressed in Sf9 insect cells
With B1 the “Binding of BMPs-2, 4 and 6 to Tfr2-ECD at high salt concentrations” value ([1]; 500 mM NaCl in running buffer) was “at a lower level”, the “Binding of BMPs to immobilized Tfr2-ECD compared with holo-transferrin” value ([1]; BMP ligands 50 nM, 1 mg/ml holo-Tf) was “more avidly than holotransferrin” and the “Binding of BMP-2 to Tfr2 relative to that of holo-Tf” value ([1]; BMP-2 vs holo-Tf) was “more than 10 fold”. For the same molecule, the “New bone formation in the muscle (trauma-induced HO, μCT)” value [2] was “inhibited new bone formation in the muscle comparable to palovarotene”.
